Experimental data as given in US20160136234A1.

What was measured:
Test in all cases: cell-based or functional assay
BrSK2 (h) (human) = target: T1, BrSK2 (h) (human) (UniProt Q8IWQ3)
T1 sequence (looked up): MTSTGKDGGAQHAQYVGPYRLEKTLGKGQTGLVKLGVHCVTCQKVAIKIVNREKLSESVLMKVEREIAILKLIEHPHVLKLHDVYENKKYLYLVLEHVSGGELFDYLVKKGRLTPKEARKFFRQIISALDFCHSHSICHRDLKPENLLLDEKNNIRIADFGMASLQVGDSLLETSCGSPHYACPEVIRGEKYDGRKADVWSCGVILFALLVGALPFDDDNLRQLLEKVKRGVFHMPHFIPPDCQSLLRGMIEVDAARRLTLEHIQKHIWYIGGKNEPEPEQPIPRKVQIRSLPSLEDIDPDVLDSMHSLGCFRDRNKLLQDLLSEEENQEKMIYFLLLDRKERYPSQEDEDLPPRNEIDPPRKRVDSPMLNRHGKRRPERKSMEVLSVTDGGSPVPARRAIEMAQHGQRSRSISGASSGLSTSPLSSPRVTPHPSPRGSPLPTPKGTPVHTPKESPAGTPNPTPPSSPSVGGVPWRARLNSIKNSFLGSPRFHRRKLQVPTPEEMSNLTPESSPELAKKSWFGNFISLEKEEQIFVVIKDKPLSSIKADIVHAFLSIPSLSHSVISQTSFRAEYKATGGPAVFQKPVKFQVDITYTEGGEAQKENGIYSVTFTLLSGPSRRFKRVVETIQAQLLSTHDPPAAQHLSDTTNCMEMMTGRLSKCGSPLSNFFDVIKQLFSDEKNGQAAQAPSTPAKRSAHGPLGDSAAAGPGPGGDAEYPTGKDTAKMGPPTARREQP

CaMKIδ (h) (human) = CaMKIδ (h) (human) (UniProt Q8IU85)
TAO3 (h) (human) = target: T2, TAO3 (h) (human) (UniProt Q9H2K8)
T2 sequence (looked up): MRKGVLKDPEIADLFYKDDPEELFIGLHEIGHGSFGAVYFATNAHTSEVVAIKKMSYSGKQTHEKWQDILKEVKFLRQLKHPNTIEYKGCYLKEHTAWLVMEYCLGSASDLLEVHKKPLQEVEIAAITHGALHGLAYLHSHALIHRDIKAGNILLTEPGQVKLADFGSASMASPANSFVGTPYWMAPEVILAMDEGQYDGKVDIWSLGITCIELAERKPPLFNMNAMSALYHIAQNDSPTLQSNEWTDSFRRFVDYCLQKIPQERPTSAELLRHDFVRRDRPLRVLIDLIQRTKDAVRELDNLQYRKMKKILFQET

Fes (h) (human) = Fes (h) (human) (UniProt P07332)
GSK3β (h) (human) = GSK3β (h) (human) (UniProt P49841)
EGFR(L861Q) (h) (human) = EGFR(L861Q) (h) (human) (UniProt P00533)
CSK (h) (human) = CSK (h) (human) (UniProt P41240)
FGFR1(V561M) (h) (human) = FGFR1(V561M) (h) (human) (UniProt P11362)
FGFR1(V561M) (h) (human), sequence (P11362 456-765 V561M limits assumed): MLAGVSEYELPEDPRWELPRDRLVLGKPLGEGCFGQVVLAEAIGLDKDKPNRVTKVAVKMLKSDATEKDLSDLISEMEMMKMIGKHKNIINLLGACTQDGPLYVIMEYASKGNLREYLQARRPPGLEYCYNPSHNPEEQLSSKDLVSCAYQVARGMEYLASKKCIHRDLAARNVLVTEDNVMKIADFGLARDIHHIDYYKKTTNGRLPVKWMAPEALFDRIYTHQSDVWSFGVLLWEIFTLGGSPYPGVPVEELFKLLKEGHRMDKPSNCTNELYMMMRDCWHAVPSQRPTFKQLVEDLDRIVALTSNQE

ARK5 (h) (human) = target: T3, ARK5 (h) (human) (UniProt O60285)
T3 sequence (looked up): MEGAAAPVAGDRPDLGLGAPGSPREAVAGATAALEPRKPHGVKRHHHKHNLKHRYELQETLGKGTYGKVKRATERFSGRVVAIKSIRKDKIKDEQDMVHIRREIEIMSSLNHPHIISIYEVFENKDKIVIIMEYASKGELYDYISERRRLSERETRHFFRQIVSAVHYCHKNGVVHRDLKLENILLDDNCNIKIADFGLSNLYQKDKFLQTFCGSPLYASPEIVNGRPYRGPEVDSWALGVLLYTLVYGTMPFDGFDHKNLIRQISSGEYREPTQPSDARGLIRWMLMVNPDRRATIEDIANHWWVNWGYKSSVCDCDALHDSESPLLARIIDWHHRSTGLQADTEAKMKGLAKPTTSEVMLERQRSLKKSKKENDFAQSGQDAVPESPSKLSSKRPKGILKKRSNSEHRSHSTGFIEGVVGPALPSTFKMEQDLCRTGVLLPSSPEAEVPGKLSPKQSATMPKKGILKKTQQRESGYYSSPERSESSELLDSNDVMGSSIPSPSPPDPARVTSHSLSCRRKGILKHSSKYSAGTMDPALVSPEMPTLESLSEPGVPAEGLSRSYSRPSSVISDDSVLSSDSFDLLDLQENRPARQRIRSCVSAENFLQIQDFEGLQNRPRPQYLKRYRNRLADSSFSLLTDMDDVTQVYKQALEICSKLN

PTK5 (h) (human) = PTK5 (h) (human) (UniProt P42685)
PTK5 (h) (human), sequence (P42685 whole entry): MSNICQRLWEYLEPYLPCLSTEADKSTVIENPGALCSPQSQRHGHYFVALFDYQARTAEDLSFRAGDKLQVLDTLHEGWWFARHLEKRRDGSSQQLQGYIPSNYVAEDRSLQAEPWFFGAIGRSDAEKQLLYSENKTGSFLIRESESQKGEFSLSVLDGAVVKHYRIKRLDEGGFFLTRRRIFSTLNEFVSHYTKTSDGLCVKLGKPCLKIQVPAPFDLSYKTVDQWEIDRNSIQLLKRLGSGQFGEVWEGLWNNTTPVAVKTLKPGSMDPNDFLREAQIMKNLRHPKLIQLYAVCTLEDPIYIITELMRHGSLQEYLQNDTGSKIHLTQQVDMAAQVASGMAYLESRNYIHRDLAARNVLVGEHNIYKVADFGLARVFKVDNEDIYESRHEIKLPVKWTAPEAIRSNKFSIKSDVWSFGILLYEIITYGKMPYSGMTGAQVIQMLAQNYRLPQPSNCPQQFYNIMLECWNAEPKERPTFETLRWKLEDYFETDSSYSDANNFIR

SAPK3 (h) (human) = target: T4, SAPK3 (h) (human) (UniProt P53778)
T4 sequence (looked up): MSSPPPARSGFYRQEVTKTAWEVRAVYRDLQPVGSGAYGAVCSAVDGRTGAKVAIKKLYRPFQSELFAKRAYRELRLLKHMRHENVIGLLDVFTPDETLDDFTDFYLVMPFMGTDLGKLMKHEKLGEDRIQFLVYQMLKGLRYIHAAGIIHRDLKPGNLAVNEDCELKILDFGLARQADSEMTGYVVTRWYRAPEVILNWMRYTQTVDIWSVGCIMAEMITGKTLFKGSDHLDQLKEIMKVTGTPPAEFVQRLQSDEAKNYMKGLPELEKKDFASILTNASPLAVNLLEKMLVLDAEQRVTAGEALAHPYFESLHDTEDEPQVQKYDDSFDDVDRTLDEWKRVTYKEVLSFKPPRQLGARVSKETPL

Txk (h) (human) = target: T5, Txk (h) (human) (UniProt P42681)
T5 sequence (looked up): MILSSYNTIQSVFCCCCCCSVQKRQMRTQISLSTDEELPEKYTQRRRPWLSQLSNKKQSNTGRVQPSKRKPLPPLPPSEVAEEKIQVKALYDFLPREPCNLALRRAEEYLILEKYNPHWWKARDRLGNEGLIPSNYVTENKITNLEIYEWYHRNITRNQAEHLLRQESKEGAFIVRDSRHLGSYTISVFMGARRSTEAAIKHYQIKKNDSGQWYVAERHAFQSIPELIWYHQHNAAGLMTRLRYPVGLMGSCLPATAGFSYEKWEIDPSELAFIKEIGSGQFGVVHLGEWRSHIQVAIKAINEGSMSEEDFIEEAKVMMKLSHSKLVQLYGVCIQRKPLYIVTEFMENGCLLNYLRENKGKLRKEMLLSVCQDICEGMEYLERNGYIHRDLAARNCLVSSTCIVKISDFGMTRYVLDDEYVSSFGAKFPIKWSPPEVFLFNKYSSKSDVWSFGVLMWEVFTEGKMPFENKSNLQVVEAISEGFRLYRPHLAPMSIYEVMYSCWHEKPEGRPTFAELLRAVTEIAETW

MMI-0300 (peptide) was tested, and the % activity at 100 µM (BrSK2 (h) (human)) was 83%, the % activity at 100 µM (CaMKIδ (h) (human)) was 10% and the % activity at 100 µM (TAO3 (h) (human)) was 77%. It also gave a % activity at 100 µM (Fes (h) (human)) of 20%, a % activity at 100 µM (GSK3β (h) (human)) of 205% and a % activity at 100 µM (EGFR(L861Q) (h) (human)) of 25%. For the same substance, the % activity at 100 µM (CSK (h) (human)) was 49%, the % activity at 100 µM (FGFR1(V561M) (h) (human)) was 74% and the % activity at 100 µM (ARK5 (h) (human)) was 78%. It also gave a % activity at 100 µM (PTK5 (h) (human)) of 132%, a % activity at 100 µM (SAPK3 (h) (human)) of 84% and a % activity at 100 µM (Txk (h) (human)) of 48%.
